Consider two substances from patent US7056701.

In the experiment the target is formaldehyde-fixed human platelets. The experiment is described as follows: inhibition of vWF/botrocetin-induced agglutination of fixed human platelets.

For HSA-vWF 470-704 C471,474→G, the IC50 (in general, the concentration needed to halve the response being measured) was below 10 nM. HSA-vWF 470-713 C471,474→G: the IC50 was 20 nM.
